Assay [1] concerns the target Escherichia coli-expressed Plasmodium falciparum merozoite surface protein 3 (EcMSP3) (Plasmodium falciparum (FVO strain)). Nature of the assay: SEC-MALS.
The target is the same in assay [2]. Description: AUC.

“Escherichia coli-expressed Plasmodium falciparum merozoite surface protein 3 (EcMSP3) (domain or fragment)”: the stoichiometry N in assay [1] and in assay [2] was 2 in each case.

The stoichiometry N is the number of molecules, sites or subunits per partner or assembly.

The record behind these values is PMC3633458.
